Where no end group is shown, it is not given here. [ ]: non-standard residue; d: D form. pT = C[C@@H](OP(=O)(O)O)[C@H](N)C(=O)O
Columns and labels:
[1] = biological target: T1, T-ag peptide 2(9), unphosphorylated (Simian virus 40); assay: filter; background at 0.5-2 mM; EMSA at 2 mM negative; conditions: protein: synthetic; tags: synthetic peptide; label: 5'-32P
T1 chain: SQHSTPPKK

[2] = biological target: T2, T-ag peptide 1(9), phospho-Thr124 (Simian virus 40); assay: as above; conditions: protein: synthetic; tags: synthetic peptide, phosphorylated Thr124; label: 5'-32P
T2 chain: SQHS[pT]PPKK

[3] = biological target: SV40 large T antigen (full length) (Simian virus 40, UniProt P03070 P03070:1-708); assay: EMSA; hexamers and double hexamers; 7 mM MgCl2, AMP-PNP, 37 C, glutaraldehyde; conditions: label: 5'-32P
[4] = biological target: T3, T-ag peptide T-2(17), unphosphorylated (Simian virus 40, UniProt P03070); assay: filter; significant at 0.5 mM, saturated at 1-2 mM; higher affinity than 13-mer; conditions: protein: synthetic; tags: synthetic peptide; label: 5'-32P
T3 chain: ATADSQHSTPPKKKRKV

[5] = biological target: T4, E1 peptide E1-P2(25), BP-E1, unphosphorylated (Bovine papillomavirus, UniProt P03116 SEQ:1-25); assay: filter; binds at 0.25 mM, better than T-2(17); EMSA works without glutaraldehyde; conditions: protein: synthetic; tags: synthetic peptide; label: 5'-32P
T4 chain: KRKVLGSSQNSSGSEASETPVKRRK

B1: 64-bp SV40 core origin (dsDNA)
DNA 1: TAATTTTTTTTATTTATGCAGAGGCCGAGGCCGCCTCGGCCTCTGAGCTATTCCAGAAGTAGTG
DNA 2: CACTACTTCTGGAATAGCTCAGAGGCCGAGGCGGCCTCGGCCTCTGCATAAATAAAAAAAATTA
B1: no binding [1]; no binding [2]; binds [3]. B1: binds [4]; binds [5].

— patent US20040147006, “Peptides that bind to DNA and inhibit DNA replication, and methods of use” (published 2004)
